This assay has as its target T1, Bromodomain containing protein 4 (BRD4) (human (endogenous in hSAECs), UniProt O60885 1-1362).
T1 construct: BRD4, endogenous in hSAECs; detected in situ with rabbit BRD4 Ab (Cell Signaling 13440); also called BRD4 CRC; source: endogenous, hSAECs (fixed cells, mock or RSV infected)
Description: proximity ligation; Duolink in situ PLA, mouse anti-IRF1 and rabbit anti-BRD4 Abs, fixed hSAECs, RSV infected (MOI 1, 24 h), with solvent (DMSO) or BRD4i ZL0454 (complex unaffected by BRD4i). The settings on record: partners not purified.

Results on one molecule are retold here after publication PMC11004252, “Cooperative interaction of interferon regulatory factor -1 and bromodomain—containing protein 4 on RNA polymerase activation for intrinsic innate immunity” (Frontiers in Immunology, 2024).

B1: interferon regulatory factor 1 (IRF1) (natural protein, human (endogenous in hSAECs), UniProt P10914 1-325, looked up)
chain: MPITRMRMRPWLEMQINSNQIPGLIWINKEEMIFQIPWKHAAKHGWDINKDACLFRSWAIHTGRYKAGEKEPDPKTWKANFRCAMNSLPDIEEVKDQSRNKGSSAVRVYRMLPPLTKNQRKERKSKSSRDAKSKAKRKSCGDSSPDTFSDGLSSSTLPDDHSSYTVPGYMQDLEVEQALTPALSPCAVSSTLPDWHIPVEVVPDSTSDLYNFQVSPMPSTSEATTDEDEEGKLPEDIMKLLEQSEWQPTNVDGKGYLLNEPGVQPTSVYGDFSCKEEPEIDSPGGDIGLSLQRVFTDLKNMDATWLDSLLTPVRLPSIQAIPCAP
notes: IRF1, endogenous in telomerase-immortalized human small airway epithelial cells (hSAECs); detected in situ with mouse IRF1 Ab (R&D MAB4830-SO); source: endogenous, hSAECs (fixed cells, mock or RSV infected)
With B1, the “fold increase of PLA complex, RSV against mock” value amounted to 25 fold.
